The target in assay [1] is third BIR domain of BIRC2 (BIRC2_(BIR3)), GST cleaved (human) (UniProt Q13490). The assay is described as follows: other fluorescence titration.
For assay [2], the target named is C-terminal fluorescein-labeled H3 peptide (1–12) (UniProt P68431). The experiment in a line: MST.

pKd: −log10 of the molar value.

Sequence of third BIR domain of BIRC2 (BIRC2_(BIR3)), GST cleaved (human) (Q13490 261-346): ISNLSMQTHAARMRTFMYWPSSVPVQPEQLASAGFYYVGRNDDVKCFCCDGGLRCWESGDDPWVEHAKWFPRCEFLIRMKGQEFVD

Usually pKd stands for the Kd on a negative log10 scale, so that one unit is a factor of ten. Low values mean a large Kd, high ones a small Kd. The substance “H3_(1–12) peptide (residues 1–12 of H3) (from UniProt P68431 2-13)” gave a pKd in assay [1] of 6.40.

As for “third BIR domain of BIRC2 (BIRC2_(BIR3)), GST cleaved (from UniProt Q13490 261-346) (domain or fragment)”, the pKd in assay [2] is 6.47.
